# *1 amine or outer side, *2 acyl side, *3 side chain or, on linkers, in order; H or OH if unused. Where no end group is shown, it is not given here. Side-chain parts run from the residue outwards. [ ]: non-standard residue; d: D form. The star is where a group is joined. C18 diacid = O=C(O)CCCCCCCCCCCCCCCCC(=O)*; γGlu = O=C(O)[C@H](CCC(=O)[*:2])N[*:1]; εLys = N[C@@H](CCCCN[*:1])C(=O)[*:2]; NMeQ = CN[C@@H](CCC(N)=O)C(=O)O; AEEA = NCCOCCOCC(=O)O; Aib = CC(C)(N)C(=O)O; Ahx = NCCCCCC(=O)O
# T1: human neuropeptide Y2 receptor (human, UniProt P49146 1-381)
# T1 sequence (looked up): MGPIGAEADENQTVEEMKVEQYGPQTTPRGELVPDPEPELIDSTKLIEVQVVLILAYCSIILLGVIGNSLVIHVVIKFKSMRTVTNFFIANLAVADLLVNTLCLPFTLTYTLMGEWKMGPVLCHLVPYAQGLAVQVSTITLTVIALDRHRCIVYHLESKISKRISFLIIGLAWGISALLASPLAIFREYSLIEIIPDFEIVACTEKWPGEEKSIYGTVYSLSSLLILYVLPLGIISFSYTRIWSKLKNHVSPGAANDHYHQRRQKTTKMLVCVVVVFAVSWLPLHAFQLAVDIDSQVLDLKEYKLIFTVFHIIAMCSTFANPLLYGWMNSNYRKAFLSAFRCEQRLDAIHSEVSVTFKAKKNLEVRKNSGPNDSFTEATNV
# T2: hGIPR (Homo sapiens, UniProt P48546)
# T2 construct: expressed in transfected cells; host or cells: CHO CRE-luciferase reporter cells
# T2 sequence (P48546 22-466): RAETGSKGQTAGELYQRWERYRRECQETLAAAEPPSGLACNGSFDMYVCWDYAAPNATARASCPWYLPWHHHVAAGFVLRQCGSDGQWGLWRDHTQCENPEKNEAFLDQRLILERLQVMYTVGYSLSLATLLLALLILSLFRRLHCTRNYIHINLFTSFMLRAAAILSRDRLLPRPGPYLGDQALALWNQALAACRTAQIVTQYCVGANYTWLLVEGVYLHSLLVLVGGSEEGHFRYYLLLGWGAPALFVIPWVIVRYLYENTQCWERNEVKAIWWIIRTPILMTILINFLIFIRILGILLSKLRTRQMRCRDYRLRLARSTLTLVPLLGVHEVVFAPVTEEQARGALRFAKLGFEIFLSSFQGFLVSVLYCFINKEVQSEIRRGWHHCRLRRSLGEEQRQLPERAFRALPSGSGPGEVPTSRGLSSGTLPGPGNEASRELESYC
# Test system: not listed separately
# Test: Solubility in 0.1 M phosphate buffer at pH 7
# Format: physicochemical
# Conditions: 0.1 M phosphate buffer at pH 7, 10 mg/mL final peptide concentration, shaking 2 hours at room temperature, peptides as TFA-salts; measured sample pH 6.5-7.0
row,Molecule,solubility at 2 h
1,"CC[C@H](C)[C@H](NC(=O)[C@H](CC(C)C)NC(=O)[C@H](Cc1c[nH]cn1)NC(=O)[C@H](CCCNC(=N)N)NC(=O)[C@@H](NC(=O)[C@H](Cc1ccccc1)NC(=O)[C@H](C)NC(=O)C(C)(C)NC(=O)[C@H](CCC(N)=O)NC(=O)[C@H](C)NC(=O)[C@H](CCC(N)=O)NC(=O)[C@H](CCCCN)NC(=O)[C@H](CCC(=O)O)NC(=O)[C@H](CC(C)C)NC(=O)C(C)(C)NC(=O)[C@@H](NC(=O)[C@H](CO)NC(=O)[C@H](CC(C)C)NC(=O)[C@H](CC(=O)O)NC(=O)[C@H](CO)NC(=O)[C@@H](NC(=O)[C@H](Cc1ccccc1)NC(=O)[C@@H](NC(=O)CNC(=O)[C@H](CCC(=O)O)NC(=O)C(C)(C)NC(=O)[C@@H](N)Cc1ccc(O)cc1)[C@@H](C)O)[C@@H](C)O)[C@@H](C)CC)C(C)C)C(=O)N[C@@H](CC(N)=O)C(=O)N[C@@H](CCCCNC(=O)CCCCCNC(=O)CCCCCNC(=O)CC[C@H](NC(=O)CC[C@H](NC(=O)CC[C@H](NC(=O)CC[C@H](NC(=O)CC[C@H](NC(=O)CCCCCCCCCCCCCCCCCCC(=O)O)C(=O)O)C(=O)O)C(=O)O)C(=O)O)C(=O)O)C(=O)NC(C)(C)C(=O)N[C@H](C(=O)N[C@@H](CCCNC(=N)N)C(=O)N[C@@H](CCC(N)=O)C(=O)N[C@@H](CCCNC(=N)N)C(=O)N[C@@H](Cc1ccc(O)cc1)C(N)=O)[C@@H](C)O [Compound 1, Y-Aib-E-G-T-F-T-S-D-L-S-I-Aib-L-E-K-Q-A-Q-Aib-A-F-V-R-H-L-I-N-K(1,3)-Aib-T-R-Q-R-Y-NH2.C20DA-gGlu-gGlu-gGlu-gGlu-gGlu-AHX-AHX(1,2)]",9.8 mg/mL

# Target: T1, human neuropeptide Y2 receptor
# Test: cell-based or functional assay
# Conditions: not given
"EC50, CreLuc reporter, 100% hP","EC50, CreLuc reporter, 0.5% hP",Molecule
0.141 µM,,"YXEGTFTSDYSIXLEKQAQXAFVRHLINKXTRQRY (Aib at 2, 13, 20, 30; Lys29 epsilon-amino acylated with C18DA-gGlu-gGlu-gGlu-gGlu-gGlu-gGlu-gGlu; C-terminal amide) [Compound 38]"
0.0282 µM,0.0263 µM,"YXEGTFTSDYSIXLEKQAEXAFVRHLINKXTRQRY (Aib at 2, 13, 20, 30; Lys29 epsilon-amino acylated with C18DA-gGlu-gGlu-gGlu-gGlu-gGlu-gGlu-eLys; C-terminal amide) [Compound 10]"
0.763 µM,,"YXEGTFTSDYSIXLEKQAQXAFVRHLINKXTRQRY (Aib at 2, 20, 30; aMeL at 13; Lys29 epsilon-amino acylated with C20DA-gGlu-gGlu-gGlu-gGlu-gGlu-gGlu; C-terminal amide) [Compound 49]"
0.121 µM,0.0187 µM,"YXEGTFTSDYSIXLEKQAQXAFVRHLINKXTRQRY (Aib at 2, 13, 20, 30; Lys29 epsilon-amino acylated with C18DA-gGlu-gGlu-gGlu-gGlu-gGlu-AHX; C-terminal amide) [Compound 13]"
0.0754 µM,0.0251 µM,Y[Aib]EGTFTSDYSI[Aib]LEKQAQ[Aib]AFVRHLINK([Ahx-γGlu-γGlu-γGlu-γGlu-γGlu-γGlu-C18 diacid])[Aib]TRQRY-NH2 [Compound 9]
0.258 µM,0.0899 µM,Y[Aib]EGTFTSDYSI[Aib]LEKQAQ[Aib]AFVRHLINK([γGlu-γGlu-γGlu-γGlu-γGlu-γGlu-C18 diacid])[Aib]TR[NMeQ]RY-NH2 [Compound 2]
0.0811 µM,0.0339 µM,Y[Aib]EGTFTSDYSI[Aib]LEKQAQ[Aib]EFVRHLINK([εLys-γGlu-γGlu-γGlu-γGlu-γGlu-γGlu-γGlu-C18 diacid])[Aib]TRQRY-NH2 [Compound 30]
0.028 µM,0.0146 µM,Y[Aib]EGTFTSDYSI[Aib]LEKQAQ[Aib]AFVRHLINK([γGlu-γGlu-εLys-γGlu-γGlu-γGlu-γGlu-C18 diacid])[Aib]TRQRY-NH2 [Compound 34]
0.0726 µM,0.0199 µM,Y[Aib]EGTFTSDYSI[Aib]LEKQAQ[Aib]AFVRHLINK([AEEA-γGlu-γGlu-γGlu-γGlu-γGlu-γGlu-C18 diacid])[Aib]TRQRY-NH2 [Compound 47]

# Target: T2, hGIPR
# Test: hGIPR CreLuc assay in 0.5% and 100% plasma (CHO CRE-luciferase reporter cells)
# Format: cell-based
# Conditions: hGIPR 0.5% hP (nM), 0.5% human plasma
row,Molecule,EC50
1,"CC[C@H](C)[C@H](NC(=O)[C@H](CC(C)C)NC(=O)[C@H](Cc1c[nH]cn1)NC(=O)[C@H](CCCNC(=N)N)NC(=O)[C@@H](NC(=O)[C@H](Cc1ccccc1)NC(=O)[C@H](C)NC(=O)C(C)(C)NC(=O)[C@H](CCC(N)=O)NC(=O)[C@H](C)NC(=O)[C@H](CCC(N)=O)NC(=O)[C@H](CCCCN)NC(=O)[C@H](CCC(=O)O)NC(=O)[C@H](CC(C)C)NC(=O)C(C)(C)NC(=O)[C@@H](NC(=O)[C@H](CO)NC(=O)[C@H](CC(C)C)NC(=O)[C@H](CC(=O)O)NC(=O)[C@H](CO)NC(=O)[C@@H](NC(=O)[C@H](Cc1ccccc1)NC(=O)[C@@H](NC(=O)CNC(=O)[C@H](CCC(=O)O)NC(=O)C(C)(C)NC(=O)[C@@H](N)Cc1ccc(O)cc1)[C@@H](C)O)[C@@H](C)O)[C@@H](C)CC)C(C)C)C(=O)N[C@@H](CC(N)=O)C(=O)N[C@@H](CCCCNC(=O)CCCCCNC(=O)CCCCCNC(=O)CC[C@H](NC(=O)CC[C@H](NC(=O)CC[C@H](NC(=O)CC[C@H](NC(=O)CC[C@H](NC(=O)CCCCCCCCCCCCCCCCCCC(=O)O)C(=O)O)C(=O)O)C(=O)O)C(=O)O)C(=O)O)C(=O)NC(C)(C)C(=O)N[C@H](C(=O)N[C@@H](CCCNC(=N)N)C(=O)N[C@@H](CCC(N)=O)C(=O)N[C@@H](CCCNC(=N)N)C(=O)N[C@@H](Cc1ccc(O)cc1)C(N)=O)[C@@H](C)O [Compound 1, Y-Aib-E-G-T-F-T-S-D-L-S-I-Aib-L-E-K-Q-A-Q-Aib-A-F-V-R-H-L-I-N-K(1,3)-Aib-T-R-Q-R-Y-NH2.C20DA-gGlu-gGlu-gGlu-gGlu-gGlu-AHX-AHX(1,2)]",0.2 nM

# Same assay, conditions: hGIPR 100% hP (nM), 100% human plasma
row,Molecule,EC50
1,"CC[C@H](C)[C@H](NC(=O)[C@H](CC(C)C)NC(=O)[C@H](Cc1c[nH]cn1)NC(=O)[C@H](CCCNC(=N)N)NC(=O)[C@@H](NC(=O)[C@H](Cc1ccccc1)NC(=O)[C@H](C)NC(=O)C(C)(C)NC(=O)[C@H](CCC(N)=O)NC(=O)[C@H](C)NC(=O)[C@H](CCC(N)=O)NC(=O)[C@H](CCCCN)NC(=O)[C@H](CCC(=O)O)NC(=O)[C@H](CC(C)C)NC(=O)C(C)(C)NC(=O)[C@@H](NC(=O)[C@H](CO)NC(=O)[C@H](CC(C)C)NC(=O)[C@H](CC(=O)O)NC(=O)[C@H](CO)NC(=O)[C@@H](NC(=O)[C@H](Cc1ccccc1)NC(=O)[C@@H](NC(=O)CNC(=O)[C@H](CCC(=O)O)NC(=O)C(C)(C)NC(=O)[C@@H](N)Cc1ccc(O)cc1)[C@@H](C)O)[C@@H](C)O)[C@@H](C)CC)C(C)C)C(=O)N[C@@H](CC(N)=O)C(=O)N[C@@H](CCCCNC(=O)CCCCCNC(=O)CCCCCNC(=O)CC[C@H](NC(=O)CC[C@H](NC(=O)CC[C@H](NC(=O)CC[C@H](NC(=O)CC[C@H](NC(=O)CCCCCCCCCCCCCCCCCCC(=O)O)C(=O)O)C(=O)O)C(=O)O)C(=O)O)C(=O)O)C(=O)NC(C)(C)C(=O)N[C@H](C(=O)N[C@@H](CCCNC(=N)N)C(=O)N[C@@H](CCC(N)=O)C(=O)N[C@@H](CCCNC(=N)N)C(=O)N[C@@H](Cc1ccc(O)cc1)C(N)=O)[C@@H](C)O [Compound 1, Y-Aib-E-G-T-F-T-S-D-L-S-I-Aib-L-E-K-Q-A-Q-Aib-A-F-V-R-H-L-I-N-K(1,3)-Aib-T-R-Q-R-Y-NH2.C20DA-gGlu-gGlu-gGlu-gGlu-gGlu-AHX-AHX(1,2)]",10.3 nM
